Experimental data as given in patent US20250163122A1, “COMPOSITIONS AND METHODS FOR TREATING AIRWAY MUCUS DYSFUNCTION” (BOARD OF REGENTS, THE UNIVERSITY OF TEXAS SYSTEM, priority 2022, published 2025).
Where a SMILES comes first, the peptide text is derived from it. Bridges are numbered along the chain shown (N, C = ends). [ ]: non-standard residue; d: D form. S5 = C=CCCC[C@](C)(N)C(=O)O

Columns and labels:
neuronal SNAREs and Syt1 = assay: Ensemble lipid mixing assay, neuronal PM and SV vesicles; format: biochemical; settings: for effect on ensemble lipid mixing: with or without Ca2+, peptide concentration-dependent
Text: Vesicle reconstitution. For the ensemble lipid mixing assay, the lipid composition of the SV vesicles was phosphatidylcholine (PC) (46%), phosphatidylethanolamine (PE) (20%), phosphatidylserine (PS) (12%), cholesterol (20%), and 1,1′-dioctadecyl-3,3,3′,3′-tetramethylindodicarbocyanine perchlorate (DiD) (Invitrogen) (2%); for the both neuronal and airway PM vesicles the lipid composition was Brain Total Lipid Extract supplemented 3.5 mol % PIP2, 0.1 mol % biotinylated phosphatidylethanolamine (PE) and 1,1′-dioctadecyl-3,3,3′,3′-tetramethylindocarbocyanine perchlorate (DiI) (Invitrogen). All the lipids are from Avanti Polar Lipids.
(§1) A 3-5 fold excess of SNAP-25A or SNAP-23 (with respect to Stx1A or Stx3) and 3.5 mol % PIP2 were added to the protein-lipid mixture for neuronal or airway PM vesicles. […] For the preparation of SV, SG, VAMP2, or VAMP8 vesicles for single vesicle content mixing assay, 50 mM sulforhodamine B (Thermo Fisher Scientific) was added to the protein-lipid mixture. The vesicles subsequently formed during size exclusion chromatography using a Sepharose CL-4B column, packed under near constant pressure by gravity with a peristaltic pump (GE Healthcare) in a 5.5 ml column with a ˜5 ml bed volume that was equilibrated with buffer V (20 mM HEPES, pH 7.4, 90 mM NaCl) supplemented with 20 μM EGTA and 0.1% 2-mercaptoethanol. The eluent was subjected to dialysis into 21 of detergent-free buffer V supplemented with 20 μM EGTA, 0.1% 2-mercaptoethanol, 5 g of Bio-beads SM2 (Bio-Rad) and 0.8 g/L Chelex 100 resin (Bio-Rad). After 4 hours, the buffer was exchanged with 21 of fresh buffer V supplemented with 20 μM EGTA, 0.1% 2-mercaptoethanol and Bio-beads, and the dialysis continued for another 12 h (overnight). […] For ensemble lipid mixing assay, the reconstitution method is the same as that for the single vesicle content mixing assay, except that 50 mM sulforhodamine B was omitted for all the steps.
Bulk lipid mixing experiments with neuronal synaptic proteins. Protein-reconstituted neuronal PM and SV vesicles were mixed at a molar ratio of 1:1, both at 0.1 mM lipid concentration. Lipid mixing is measured by monitoring the fluorescent emission (670 nm) of the DiD dyes in the SV vesicles by FRET using 530 nm laser light excitation of the DiI dyes in neuronal PM vesicles. The fluorescence intensity was monitored in two channels at 570 nm and 670 nm, respectively. Fluorescence changes were recorded with a Varian Cary Eclipse model fluorescence spectrophotometer using a quartz cell of 100 μl with a 5 mm path length. All measurements were performed at 35° C.

airway SNAREs and Syt2 = airway SNAREs and Syt2 (Rattus norvegicus, UniProt P29101); assay: Single vesicle content mixing assay, airway SNAREs and Syt2 (airway PM and SG vesicles); format: biochemical; settings: for Ca2+ triggered fusion events / Ca2+ independent fusion events: 10 μM peptide, raw count; for Ca2+ triggered fusion events: 500 μM Ca2+
Chain of airway SNAREs and Syt2 (P29101 whole entry, the tested form may be a part): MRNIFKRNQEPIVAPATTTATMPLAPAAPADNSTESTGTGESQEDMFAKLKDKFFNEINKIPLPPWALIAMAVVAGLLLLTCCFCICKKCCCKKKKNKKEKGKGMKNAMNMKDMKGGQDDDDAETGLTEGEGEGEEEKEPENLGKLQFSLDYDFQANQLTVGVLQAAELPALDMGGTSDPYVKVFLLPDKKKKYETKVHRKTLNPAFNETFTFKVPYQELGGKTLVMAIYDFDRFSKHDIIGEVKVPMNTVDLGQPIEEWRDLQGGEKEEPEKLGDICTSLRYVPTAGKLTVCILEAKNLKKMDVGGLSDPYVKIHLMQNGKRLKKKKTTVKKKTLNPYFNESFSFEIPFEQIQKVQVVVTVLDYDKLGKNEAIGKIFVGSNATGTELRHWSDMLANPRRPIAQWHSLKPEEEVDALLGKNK
Text: For single vesicle content mixing assay, the lipid composition of the SV, SG, VAMP2, or VAMP8 vesicles was phosphatidylcholine (PC) (48%), phosphatidylethanolamine (PE) (20%), phosphatidylserine (PS) (12%), and cholesterol (20%); for both the neuronal and airway PM vesicles the lipid composition was Brain Total Lipid Extract supplemented 3.5 mol % PIP2, and 0.1 mol % biotinylated phosphatidylethanolamine (PE).
The reconstitution method for neuronal PM and SV vesicles was described in detail previously (see Lai et al., 2017; Kyoung et al., 2011; and Lai et al., 2014). The same methods were used for airway PM, SG, VAMP2, and VAMP8 vesicles. Dried lipid films were dissolved in 110 mM OG buffer containing purified proteins at protein-to-lipid ratios of 1:200 for VAMP2 and Stx1A for SV and neuronal PM vesicles, respectively (or 1:200 for VAMP8 and Stx3 for SG and airway PM vesicles, respectively), and 1:800 for Syt1 for SV vesicles (or 1:1200 for Syt2 for SG vesicles).
as §1
Single vesicle content mixing experiments. All single vesicle fusion and single molecule experiments were performed on a prism-type total internal reflection fluorescence (TIRF) microscope using 532 nm (green) laser (CrystaLaser) excitation. Two observation channels were created by a 640 nm single-edge dichroic beamsplitter (FF640-FDi01-25x36, Shemrock): one channel was used for the fluorescence emission intensity of the content dyes and the other channel for that of the Cy5 dye that are part of the injected Ca^2+-solution. The two channels were recorded on two adjacent rectangular areas (45×90 m^2) of a charge-coupled device (CCD) camera (iXon+DV 897E, Andor Technology). The imaging data were recorded with the smCamera software developed by Taekjip Ha, Johns Hopkins University, Baltimore.
Flow chambers were assembled by creating a “sandwich” consisting of a quartz slide and a glass coverslip that were both coated with polyethylene glycol (PEG) molecules consisting 0.1% (w/v) biotinylated-PEG except when stated otherwise, and using double-sided tape to create up to five flow-chambers.
The single vesicle content mixing assay described in Lai et al. (2014) was used to monitor vesicle-vesicle association, Ca^2+-independent, and Ca^2+-triggered fusion. The surface of the quartz slides was passivated by coating the surface with polyethylene glycol (PEG) molecules which alleviated non-specific binding of vesicles. The same protocol and quality controls (surface coverage and non-specific binding) were used as described previously (Kyoung et al., 2011; Kyoung et al., 2012) except that PEG-SVA (Laysan Bio) instead of mPEG-SCM (Laysan Bio) was used since it has a longer half-life. […]

| Compound | effect on ensemble lipid mixing (neuronal SNAREs and Syt1) | Ca2+ triggered fusion events (airway SNAREs and Syt2) | Ca2+ independent fusion events (airway SNAREs and Syt2) | effect on Ca2+-triggered ensemble lipid mixing (neuronal SNAREs and Syt1) | effect on Ca2+-independent ensemble lipid mixing (neuronal SNAREs and Syt1; 10 μM and 100 μM peptide) | effect on Ca2+-triggered cumulative fusion probability (airway SNAREs and Syt2; up to 10 μM peptide) | effect on intrinsic Ca2+-independent fusion probability (airway SNAREs and Syt2; up to 10 μM peptide) |
| --- | --- | --- | --- | --- | --- | --- | --- |
| CC[C@H](C)[C@H](NC(=O)[C@]1(C)CCCC=CCCC[C@](C)(NC(=O)[C@H](CCC(=O)O)NC(=O)[C@H](CCC(=O)O)NC(C)=O)C(=O)N[C@@H](CCCCN)C(=O)N[C@@H](CC(=O)O)C(=O)N[C@@H](C)C(=O)N1)C(=O)N[C@@H](CCCNC(=N)N)C(=O)N[C@@]1(C)CCCC=CCCC[C@@](C)(C(=O)N[C@@H](CC(=O)O)C(=O)N[C@@H](CCC(=O)O)C(=O)N[C@@H](CCC(N)=O)C(=O)N[C@@H](CS)C(N)=O)NC(=O)[C@H](CCSC)NC(=O)[C@H](C(C)C)NC(=O)[C@H](CC(C)C)NC1=O [SP9, Ac-EE(S5)KDA(S5)IR(S5)LVM(S5)DEQC-amide] (Ac-EE[S5]KDA[S5]IR[S5]LVM[S5]DEQC-NH2; staple 3-7, 10-14) | substantially inhibited | 250 | 274 |  |  |  |  |
| Ac-SKD(S5)GIR(S5)LV(S5)LDE(S5)GEQL-amide (Ac-SKD[S5]GIR[S5]LV[S5]LDE[S5]GEQL-NH2; staple 11-15, 4-8; SMILES CC[C@H](C)[C@@H]1NC(=O)CNC(=O)[C@@](C)(NC(=O)[C@H](CC(=O)O)NC(=O)[C@H](CCCCN)NC(=O)[C@H](CO)NC(C)=O)CCCC=CCCC[C@@](C)(C(=O)N[C@@H](CC(C)C)C(=O)N[C@H](C(=O)N[C@@]2(C)CCCC=CCCC[C@@](C)(C(=O)NCC(=O)N[C@@H](CCC(=O)O)C(=O)N[C@@H](CCC(N)=O)C(=O)N[C@@H](CC(C)C)C(N)=O)NC(=O)[C@H](CCC(=O)O)NC(=O)[C@H](CC(=O)O)NC(=O)[C@H](CC(C)C)NC2=O)C(C)C)NC(=O)[C@H](CCCNC(=N)N)NC1=O) [SP10] | substantially inhibited | 273 | 327 |  |  |  |  |
| Ac-SKD(S5)GIR(S5)LVMLDE(S5)GEQ(S5)DR-amide (Ac-SKD[S5]GIR[S5]LVMLDE[S5]GEQ[S5]DR-NH2; staple 15-19, 4-8; SMILES CC[C@H](C)[C@@H]1NC(=O)CNC(=O)[C@@](C)(NC(=O)[C@H](CC(=O)O)NC(=O)[C@H](CCCCN)NC(=O)[C@H](CO)NC(C)=O)CCCC=CCCC[C@@](C)(C(=O)N[C@@H](CC(C)C)C(=O)N[C@H](C(=O)N[C@@H](CCSC)C(=O)N[C@@H](CC(C)C)C(=O)N[C@@H](CC(=O)O)C(=O)N[C@@H](CCC(=O)O)C(=O)N[C@@]2(C)CCCC=CCCC[C@@](C)(C(=O)N[C@@H](CC(=O)O)C(=O)N[C@@H](CCCNC(=N)N)C(N)=O)NC(=O)[C@H](CCC(N)=O)NC(=O)[C@H](CCC(=O)O)NC(=O)CNC2=O)C(C)C)NC(=O)[C@H](CCCNC(=N)N)NC1=O) [SP1] | substantially inhibited | 275 | 251 |  |  |  |  |
| Ac-SKDA(S5)IRT(S5)VM(S5)DEQ(S5)EQL-amide (Ac-SKDA[S5]IRT[S5]VM[S5]DEQ[S5]EQL-NH2; staple 12-16, 5-9; SMILES CC[C@H](C)[C@@H]1NC(=O)[C@@](C)(NC(=O)[C@H](C)NC(=O)[C@H](CC(=O)O)NC(=O)[C@H](CCCCN)NC(=O)[C@H](CO)NC(C)=O)CCCC=CCCC[C@@](C)(C(=O)N[C@H](C(=O)N[C@@H](CCSC)C(=O)N[C@@]2(C)CCCC=CCCC[C@@](C)(C(=O)N[C@@H](CCC(=O)O)C(=O)N[C@@H](CCC(N)=O)C(=O)N[C@@H](CC(C)C)C(N)=O)NC(=O)[C@H](CCC(N)=O)NC(=O)[C@H](CCC(=O)O)NC(=O)[C@H](CC(=O)O)NC2=O)C(C)C)NC(=O)[C@H]([C@@H](C)O)NC(=O)[C@H](CCCNC(=N)N)NC1=O) [SP4] | substantially inhibited | 231 | 237 |  |  |  |  |
| EESKDAGIRTLVMLDEQGEQLD [Peptide P0, non-stapled SNAP-25A fragment used as a control, reference compound] |  | 219 | 113 | little effect | little effect | no effect | no effect |
